B1: 14Tigit-1-1 mouse monoclonal antibody (antibody, V domains shown)
VH: DVQLQESGPGLVKPSQSLSLTCTVTGYSITSDYAWNWIRQFPGNKLEWMGYISYSGSTRSNPSLKSRISITRDTSKNQFFLQLNSMTAEDTATYYCGGWEVRNYYAMDYWGQGTSVTVSS
VL: DIVMTQSHKFMSTSVGDRVSITCKASQHVSTAVAWYQQKPGQSPKLLIYSASYRYTGVPDRFTGSGSGTDFTFTISSVQAEDLAVYYCQQHYNTPWTFGGGTKLEIKR
notes: Mouse monoclonal antibody from hybridoma
B2: Tigit-5 mouse monoclonal antibody (antibody, V domains shown)
VH: QVQLQQPGAELVRPGASVKLSCKASGYSFTSYWMNWVKQRPGQGLEWIGMIRPSDSETRLNQMFKDKATLTVDKSSSTAYMQLSSPTSDDSAVYYCAGIHDYGHGAYWGQGTLVTVSA
VL: DIQMIQSPASLSVSVGETVTITCRASENIYSNLAWYQQKQGKSPQLLVYAASHLPDGVPSRFSGSGSGTQYSLKINSLQSEDFGSYYCQHFWGTPRTFGGGTKLEIKR
notes: as for B1

How the values were obtained:
hTIGIT-hFc = target: T1, hTIGIT-hFc (human, UniProt Q495A1 22-141); experiment: FACS blocking: hTIGIT-hFc bound on CHO-hCD112 cells, then antibody, APC anti-human IgG Fc; blocked partner CD112; unit as printed on the x axis, Log(uM); the method's top concentration of 20 µg/mL and the nM values of Fig. 5B speak for nM
T1 construct: also called antigen protein hTIGIT-hFc; human TIGIT recombinant protein carrying a human Fc tag; not shown: human Fc tag
T1 sequence (looked up): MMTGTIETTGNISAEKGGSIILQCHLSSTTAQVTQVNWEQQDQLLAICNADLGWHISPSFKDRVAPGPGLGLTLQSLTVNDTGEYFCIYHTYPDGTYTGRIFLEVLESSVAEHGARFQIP
Procedure: The CHO-engineered cell CHO-hCD112 cells recombinantly expressing full-length human CD112 were counted; centrifugated at 300 g for 5 min; resuspended with an FCM buffer; and cell density was adjusted to 4E+06 cell/mL for later use. […] According to an experimental design, in each well, 50 μL of the antigen protein and 50 μL of the cell (the volume of each cell added into a 96-well V-shaped plate being 2E+05 cell/well) were respectively added in the 96-well V-shaped plate; and incubation was performed in dark on ice for 30 min. Centrifugation (300 g/5 min) was performed; supernatant was discarded; 200 μL of the FCM buffer was added for washing once; centrifugation (300 g/5 min) was performed; and the supernatant was discarded. The antibody was added to the 96-well V-shaped plate (in 100 μL/well); and incubation was performed in dark on ice for 30 min. Centrifugation (300 g/5 min) was performed; supernatant was discarded; 200 μL of the FCM buffer was added for washing once; centrifugation (300 g/5 min) was performed; and the supernatant was discarded. Secondary antibodies (APC anti-human IgG Fc, 1:500 dilution) were added to the 96-well V-shaped plate (in 100 μL/well); and incubation was performed in dark on ice for 30 min. […]

[1] = target: T2, full-length human TIGIT on cells (human, UniProt Q495A1 22-244); experiment: FACS titration on PBMC of healthy people (natural TIGIT); unit taken from the x axis Log[µg/mL]; the curve still rises at the highest concentration (MFI about 11000 at log 1), no plateau, the fitted value lies outside the range shown
T2 construct: whole, on cells; The same protein is used for CHO-hTIGIT, PBMC and NK92-hTIGIT; the cells are named under assay; also called CHO-hTIGIT; hTIGIT
T2 sequence (looked up): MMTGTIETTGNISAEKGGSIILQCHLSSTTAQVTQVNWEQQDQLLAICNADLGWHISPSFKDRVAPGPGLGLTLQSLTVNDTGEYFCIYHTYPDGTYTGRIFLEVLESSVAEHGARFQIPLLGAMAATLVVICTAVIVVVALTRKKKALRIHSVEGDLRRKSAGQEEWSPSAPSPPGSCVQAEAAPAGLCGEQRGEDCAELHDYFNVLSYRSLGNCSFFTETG
Procedure: In order to verify that the prepared anti-human TIGIT antibody may effectively bind to naturally expressed TIGIT, the following experiments were specifically performed. PBMC cells in healthy people to be detected were counted, centrifuged at 300 g for 5 min, resuspended with an FCM buffer; and cell density was adjusted to 4E+06 cell/mL for later use. Samples to be detected (including a positive control antibody and a mouse monoclonal antibody) were diluted with the FCM buffer to 20 μg/mL, and then the FCM buffer was used to perform 3× serial dilutions of 12 concentration points; and the isotype control antibody was diluted with the FCM buffer to 20 μg/mL. According to an experimental design, in each well, 50 μL of the antibody and 50 μL of the cell (the volume of each cell added into a 96-well V-shaped plate being 2E+05 cell/well) were respectively added in the 96-well V-shaped plate; and incubation was performed in dark on ice for 30 min. Centrifugation (300 g/5 min) was performed; supernatant was discarded; 200 μL of the FCM buffer was added for washing once; centrifugation (300 g/5 min) was performed; and the supernatant was discarded. […] Centrifugation (300 g/5 min) was performed; supernatant was discarded; 200 μL of the FCM buffer was added for washing once; centrifugation (300 g/5 min) was performed; and the supernatant was discarded. […]

Binder	IC50 (hTIGIT-hFc)	EC50 [1]
B1	2600 nM	–
B2	–	~310 µg/mL

From patent publication US20240002500A1 (GUANGDONG FAPON BIOPHARMA, published 2024)
